Drawing on publication PMC3237428, this text covers ratio of HSlo in β-catenin immunoprecipitates, wild type HSlo to HSloΔS10 (fold (wild type over HSloΔS10)) for one substance.

For the assay, the target named is β-catenin (endogenous in HEK293 cells) (human (endogenous in HEK293)) (UniProt P35222). The experiment in a line: co-IP; reciprocal immunoprecipitation from stable HEK cell lysates with protein A/G agarose, anti-β-catenin antibody or rabbit antibody BsloC; western blot; 0.5% DDM. Background: Immunoblotting shows a protein as a band on a membrane.
Sequence of UniProt P35222 (P35222 whole entry): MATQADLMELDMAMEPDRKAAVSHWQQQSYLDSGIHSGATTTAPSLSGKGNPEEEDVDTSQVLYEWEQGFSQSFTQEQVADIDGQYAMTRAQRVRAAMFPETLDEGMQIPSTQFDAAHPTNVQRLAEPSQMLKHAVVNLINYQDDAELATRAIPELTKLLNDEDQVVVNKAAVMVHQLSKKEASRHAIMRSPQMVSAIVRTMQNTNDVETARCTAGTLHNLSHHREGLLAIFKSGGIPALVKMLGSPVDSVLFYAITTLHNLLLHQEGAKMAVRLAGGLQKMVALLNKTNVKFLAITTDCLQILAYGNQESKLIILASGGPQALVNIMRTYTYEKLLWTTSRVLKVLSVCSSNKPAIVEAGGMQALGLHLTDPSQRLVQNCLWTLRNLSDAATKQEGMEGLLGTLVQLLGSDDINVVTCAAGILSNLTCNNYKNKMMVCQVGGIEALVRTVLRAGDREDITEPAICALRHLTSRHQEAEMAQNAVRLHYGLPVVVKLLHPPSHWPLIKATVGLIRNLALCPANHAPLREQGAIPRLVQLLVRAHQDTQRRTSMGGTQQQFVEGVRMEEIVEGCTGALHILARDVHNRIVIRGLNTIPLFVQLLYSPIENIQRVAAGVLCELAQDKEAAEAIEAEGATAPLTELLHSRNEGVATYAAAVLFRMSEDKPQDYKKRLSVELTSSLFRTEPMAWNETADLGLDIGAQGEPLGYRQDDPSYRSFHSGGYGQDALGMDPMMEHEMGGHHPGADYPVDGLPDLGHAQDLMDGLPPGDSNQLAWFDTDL

With “HSloΔS10 (HSlo deletion construct lacking the S10 region) (natural protein)”, the ratio of HSlo in β-catenin immunoprecipitates, wild type HSlo to HSloΔS10 (fold (wild type over HSloΔS10)) worked out at 4.
